# System: Saccharomyces cerevisiae
# Experiment: transcriptional activation domain activity (GFP:mCherry ratio, weighted mean of sorted bins, harmonized to initial dataset scale) (arbitrary fluorescence ratio units); higher = stronger transcriptional activation
# Conditions: beta-estradiol 1 µM; induction time 4 h
# In short: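 The listed activation activity is a read-weighted mean of bin median fluorescence, averaged across barcodes and linearly mapped onto the initial dataset scale. Barcoded tiles, fused to an estradiol-inducible synthetic transcription factor, were integrated at URA3 in yeast diploids bearing a GFP reporter. Cells were held 4 hours at 30 °C in SC with 1 uM beta-estradiol, sorted into 8 GFP:mCherry bins, and sequenced, and tiles with fewer than 50 reads were excluded.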
row,Sequence,transcriptional activation domain activity
1,FSLLLDSYIFLFNYCPVRYRYGYLIKDLVQNASRIKSIYTNSDLKFLFSFVWM,53800
2,MCVAFSFSSPRFFYSWVMGDFSFFFSFLPPFDSFFSFSLGSIMYPLFLGIFFF,59400
3,SPWVSWADTHSNFSRVVQVPSIYWRADPYSTASAETLRWATVVCVLLFFAYFR,42700
4,FTFILMMACLVSGIGWCLLYFTCMYLLLIYYILSLFYPPLASCNSFSFFFSFV,64100
5,NLLLFPGISFKTQLLYAIVFCTRYLDLFIRFVSIYNTLMKIFFIGSSFYILYL,67300
6,EEEDGQSEPDSARAPRKAKSKTRAATDGEDESEARSKPKASRKGRRKVEASDA,24000
7,LAESQRQNQQGGRGRGGRSLFDRTERGRGNRRGGHQGNGHHARQDEAANGGAE,17600
8,PKDSEPEGADKLKPMQEVYGAVRNTGIGTEVDNRDNMIRGRWRKLLHARLAHL,43500
9,AAPAAAAAQAAAPVSPAVKAETPVEAPKTIPAAAAPAPAPAKTEAAPAAEPVA,27500
10,MTGIFFFFFLLFLFLQLGIGTVFERLLSFQFPNYILFPILPPLHPSSPPFFTY,38600
11,MLTEVLEYCYVHGKKAYVLFNILQHVLDCHDYISFTHQLVLVMKYAKYQYVIA,55100
12,MAVSIWDFVLCIFPHLHFLCLWIVFLSLFMFSYCFKFRFTPVLLTISLPRCFF,51200
13,LQLEMMEGIEDLDLEFDRMLDDFIIINFFIGNDFLPELPMLMVNDGAVPVILS,85100
14,HHLHAFLLGLGFLFSLLICVSSSCLVSSSLLRLLLLLPRFARWIRFLLYILLL,64400
15,KTRGFQEGVSLTVYDELARWEKYAYGCNELIFHPMRYWPTRGPFTKLFIRFIF,41600
16,IELRARVFNYSNMHALKRCTFRLNRFETAFNFKLLWLFFVYYTRGIEVNRRNL,58600
17,GKEKNHGRGERNGERTKAKGEGRGEEDSQRRGRRRESKERGRRRGGEPEETKG,49600
18,MISFFCDIPVFSLLVPFLPLSFMFPMSPMFYYFFIYAVGCSIFLSLLFFSYVI,28100
19,VTCGLLKVAIDLINHFPLFALVLRVKDPRRLPGSTYFRVIHDKGQTILMLEVD,40300
20,MQYVANATPVTCDYDGFDGSGMLVIPNIAIYLSATSGLACIIKCFEILWWYMA,65000
21,CDTGILLCLVCYLSSKVLLYFFLVEKVHVIRGNNDSRWKDKLFVFNCFGMMLP,38100

row,Sequence,transcriptional activation domain activity
1,RCKHSDCQELSPFASVFDLIDHYDHTHAFIPETLVKYSYIHLYKPSVWDLFEY,157000
2,VRQQLKIRLIKLFRRFYPYVNFAYYASGLVYNVLYLFNKTKYYSPWLHLIGVQ,52200
3,IDGIDLEEAGNFREIETYYRDYLSPIDRLSIISVQENNVIFQDKGNVSRENIE,73100
4,GPTIRHKMNLFHVYGRRNPHLRLMISLIYVWMRSWGVKEMSPGTLCLLLIRFF,59800
5,RQQDSSQSDRDSSRDSRTRDARHHSRRDGERRQRAESNGNLRPAEESRRGRSE,25400
6,KQYCVRPNSGRIEPGKDVEVQVLLQAMKEDPPLDAKCRDKFLVQSVAVTADKE,24900
7,MFLFIYFVCVCVFSLSLLWDGVSGWVLFVLDWIGLIGGMCVWAYIIIFYEFLV,63200
8,DKSSGEEGSRKKRKRVSDNGEEDKELEKSKSKDRKKKGKRRDPAEDGAERPAT,41400
9,WRKQWLVPLLIRYFNQMVLTLIRWFPLRCLYYTLIKGQAYEGLNKEYDADGIH,58300
10,FLRGLVVLLWSLDSLHLAFIVHGLYYYLIQNYGNYFSLFKPVWSFVGQILVSS,57300
11,SADDSAGEARQREKSEESGTRRSRKSHDRESKEGAEGADEAESWERSSKKKSR,29600
12,GKFLTVLLALSVMGSVAATSVAIFSFNNIRSNVYSFYSISLNMQILMPVLVYV,41200
13,GRRRDNGGRRQGGGRRDGGGGGGGGGGRGRGERGGGGGERGERGGGARPKKTQ,34900
14,INGLFMLLLVYYLTLYHLARCLGYSVLSYLAHFIRFDGFCPLLHTCAGLLFSS,42300
15,GEIVQIDLPLYGKSGQNRGKAALEYSDSLSAQKAASHMTGGQIDGAVVKVELS,66000
16,MDYVWRRVRWIRVRKHMVFIATLLEPFTECMLVCLIGALSARHLFDIRLVVFY,49000
17,MTWFTATLTVLYHLTHPIITIFRWLLLPLTPFYHLFSYIFSTLFLLPSLYIYF,53100
18,APSIRYRLPFDSLLFVFCGTLLCTLIFLREALIPHFPCWVLLWGAYILLPLCF,15900
19,GLCLLYISGLVCATIVCYIEFTMHQSALLNATRLTPFMIAALCLTLFLNIIAT,57200
20,DEEGRRALPRRCVLVMGSEREGVPGPVLAECDGCVEVRQVGVTRSLNVQTAAA,28700
21,AALFLSVQHKLFYLVMSLARFNLYFLSYSFLLLHAKRRWHWYAEIASIMLFWS,50400

row,Sequence,transcriptional activation domain activity
1,GGKAKGRKGKEKEKEKEVADKPAARKCAAPKAAPKKATVKKAAKKVKETGKGS,28700
2,AFLLFLLYLTFFCWVCFATSATWVWSEILSDNQYTESFMPINDVLLAVLSGII,53100
3,EAPVEAPIEVPVEAPVEAPVEAEKPAEEIETPAEAVVEKPAEETEKPAEAVVE,31900
4,GEAGAEGEAAAAEGEGAAEEGASGEGAEGEEAAAEEGEGAEEEGGEDLQALAT,< 6570
5,TEQEAIQKKRKKRKIREDNGISTVLFALEEVCAIILHRMQHRNGVPHVTTLVF,52100
6,KPKVKKDADDDAMDVDEEEKPKPKPKPRPKPKATSSPKEGEEDEPAKKKLKTS,51400
7,NDFEKLEFFNKYAKVNTNNDVNENNDLWNSYLQSMDDTTGKNSGNYQQVDNDD,35700
8,IGETDAKAKKEKKEKKGKKAQEGAVVAETVDGGEEKKKKKKSKAKGETTADSM,35100
9,DREAKEDGGDTGGGGGRDRGGEEEEDEEEEEEEEEDDGFIKKTKKDKKKKKKK,36100
10,GDADVDGNGHGTHCSGTIAGKKYGVSKKAKIYAVKVLRSNGSGTMADVVAGVE,59400
11,LWHLVYEPILKGIHEHLLLLDEIIEIFGPDVEKELFRRVYYYLSLLCMHSGTH,24600
12,KDSDDESEDSDAKSKKRKKRKRVVESDEGSGSEAESKKRKKKRKAEDSDVSGS,22600
13,IEAEEAEEIGVEHLLRDIASSSGAPSSTLLTTQSLSTRVAAQLNALQGLRARL,66900
14,VYTDLIRIIGDTKPILLDNYHNAMRRTMSVVIGFRVFYYHNEWHRAKGFIRKA,38400
15,EKGGGRDGETAAVEGEKEVQNGDAQTEADGNASTDGGTKRRRKGKKAAAEADD,24100
16,ADASKWWLLGDSFEADVLTFVSLFQFVNSALIFNYGYIFRQAWYRNYLLVSVW,56700
17,AESQSSRATHTRKRAKQACRQCNARRVRCNVAESQPCANCRSSGSACELLPSK,26200
18,KSVVLERKLAIGQCRHLFTVNDNWLVSVWNDFHVGIVVRNMVFFLCRLVFDFM,42700
19,MDGVFGVCFLCFISVFYLCFIAFFFSILTTTLLLWLRWGAMFLSFFLSCYLFF,32700
20,RRGSKGKQRASGNRGPGGSGGSRGWGQRTASHGKAGKGTGKRSGSNSGSHGES,37100
21,VARVVNVFLWSMAVTFFLLVMHRITVYRAQQLYITTYCDPYFPIYPLRRILPQ,45400

row,Sequence,transcriptional activation domain activity
1,MALFLGCIDFGQYKLNLEKYSGWLTIPLVPSEQALFYHTVKIIYSIFLHPLRN,66500
2,LYLLVEILLLATYAVNYNVQYIVLETVTPIAVSSCLVPHTRFLFRLILFIQGL,63200
3,FFPLGFLMRFLLFDLSLSCFLSFPLFLFSLPTTFLLYYYFPPHTIIMSCGSPI,43500
4,KLYQLKLKIFLYWQRYSYLYAKRKHSTKHHTLLVWSLKVKKLYGILWCFLLLF,36600
5,WGTTFRDEGSRVRVLMRRLARMMRLGGRTPCQSDHISNVHFSAPADWQSTWGT,48000
6,MTTLYISFLFFLFCASFTFCTIFFFFFFFFTQWLYSSPLHLSLSLSLLFLFLI,65100
7,HLYQISLLLSIFVFFSQGLCRFLYYLPPVPFLTHISSTKLWVWIGLVACLTLK,65800
8,ILALNLSCFDTLCYCYGFWSRLFFYLLLLLMHHLHYHAIQNQSLDLFALHIYR,78000
9,EVSFVALLLVWTYMRHYLNCKILYSVWTEFDLIPHHFRSWVHEPGYPHDIRGW,45000
10,MLLFIFWRLLYFFILGSLLRAQSRRKWLVRWCREHGFGPNPRRPRSGWVTFWV,59600
11,MGNFLYGFCVIFPYNLVYIIICYFGGITQVVNAGFGYMLLLIVLWTHGQLCLS,38600
12,QGTNHAYHEHILNTDMDLKILEDLCNISSLYEVPFGKHINHHDHNNAGNGCDG,83400
13,KPHHKWIVPTPFASHAFHPVDGYFQSLPYHIFIFVFPMQRHLYLALFVAVNCW,41800
14,GGGGGGGGSYGAFGGGGKTCYTCGGVGHLSRDCVQGSKCYNCSGIVRDVILVE,67800
15,RADADAAASGGHDRRRKRARSDASPSDGHASDASTARRERSSRRSSRSHPRHA,18500
16,VCKHLKRQRISVDGSLKLISDMNHYFTYIETLKNNELLLYFKALRELSQIYLV,70700
17,KRKDGNGGAGREMKRGERDASPAKGKGASAARGRGGRGRGGRRGGSRGGKKRG,32600
18,MGFCFYVAGCMSISLILLFSFCLLLPPIFTGYQILWLLWIILPILSMSMLFTP,43400
19,MQETNGNTTAADQGSRHDVPPPRRPTRSRNGCMTCRRRKVRCDEQRPRCSHCE,8920
20,VNHIVAYITLGIVGFCFLSYITLTLMPLIFHDCPYYTPFTSLLWYSAQIIPFF,33600

# Reference: the supplement of paper PMC12636428
